{
  "source": "patent US20120117670A1",
  "about": "(U3 PHARMA, published 2012)",
  "key": {"[1]": {"target": "T1, Human AXL-Fc (R&D Systems, #154-AL) (human, UniProt P30530 26-451)", "T1 construct": "Bought reagent; also called human AXL-Fc fusion protein; human AXL-Fc protein; not shown: Fc part of the bought fusion protein", "T1 sequence": "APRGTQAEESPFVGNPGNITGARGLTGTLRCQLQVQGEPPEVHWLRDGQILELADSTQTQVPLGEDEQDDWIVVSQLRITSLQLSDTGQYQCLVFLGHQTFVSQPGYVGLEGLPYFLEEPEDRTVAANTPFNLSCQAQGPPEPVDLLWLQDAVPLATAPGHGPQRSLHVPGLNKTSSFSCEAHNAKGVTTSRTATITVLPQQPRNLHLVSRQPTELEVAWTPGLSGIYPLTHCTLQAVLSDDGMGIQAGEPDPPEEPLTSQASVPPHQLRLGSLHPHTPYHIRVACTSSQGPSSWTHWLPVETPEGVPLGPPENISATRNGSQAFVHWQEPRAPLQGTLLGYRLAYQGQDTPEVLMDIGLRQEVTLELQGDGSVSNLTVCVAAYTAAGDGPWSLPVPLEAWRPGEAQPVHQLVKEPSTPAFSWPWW", "experiment": "ELISA on plate-adsorbed human AXL-Fc (1 ug/ml), 5-fold antibody dilution series, AP-conjugated goat anti-human IgG, fluorescent substrate (Example 14)"}, "[2]": {"target": "T1, Human AXL-Fc (R&D Systems, #154-AL)", "experiment": "ELISA on plate-adsorbed human AXL-Fc (1 ug/ml), 5-fold antibody dilution series, AP-conjugated goat anti-human IgG, fluorescent substrate (Example 13)"}, "[3]": {"target": "T1, Human AXL-Fc (R&D Systems, #154-AL)", "experiment": "ELISA on plate-adsorbed human AXL-Fc (1 ug/ml), 5-fold antibody dilution series, AP-conjugated goat anti-human IgG, fluorescent substrate (Example 13)", "remark": "listed apart in the source"}},
  "data": [
    {"binder": "h#11D5-T1 (antibody, human IgG1, kappa, V domains shown, Humanized antibody of rat #11D5 made from pEF6KCL/h#11D5-T1L and pEF1/FCCU/h#11D5-T1H; also called T1 (humanized #11D5)) VH: QVQLQESGPGLVKPSQTLSLTCTVSGYSITSNYWGWIRQPPGMGLEWIGHITNSGNTTYNPSLKSRVTISVDTSENQFSLKLSSVTPADTAVYYCAKGAFDYWGQGTLVTVSS VL: DVQMTQSPSSLSASVGDRVTITCRASQDIGNYLSWYQQKPGKAPKLLIYGAIKLAVGVPSRFSGSGSGTDFTLTISSLQPEDFATYYCLQYIQFPLTFGQGTKLEIKR", "values": [
      {"measurement": "EC50 (read off the curve)", "setting": "[1]", "value": "~0.02", "unit": "µg/mL"}
    ]},
    {"binder": "h#11B7-T25 (antibody, human IgG1, kappa, Humanized IgG1/kappa) heavy: not shown light: DIQMTQSPSSLSASVGDRVTITCRASQDIGNYLRWFQQKPGKAPKLLISGATNLAAGVPSRFSGSGSGSDFTLTISSLQPEDFATYYCLQSKESPWTFGQGTKVEIKRTVAAPSVFIFPPSDEQLKSGTASVVCLLNNFYPREAKVQWKVDNALQSGNSQESVTEQDSKDSTYSLSSTLTLSKADYEKHKVYACEVTHQGLSSPVTKSFNRGEC", "values": [
      {"measurement": "EC50 (read off the curve)", "setting": "[2]", "value": "~0.01", "unit": "µg/mL"}
    ]},
    {"binder": "h#11B7-T24 (antibody, human IgG1, kappa, V domains shown, Humanized IgG1/kappa) VH: QVQLQESGPGLVKPSETLSLTCTVSGYSITSNYWGWIRQPPGKGLEWIGYITYSGSTSYNPSLKSRVTISRDTSKNQFSLKLSSVTAADTAVYYCAITTFYYWGQGTLVTVSS VL: DIQMTQSPSSLSASVGDRVTITCRASQDIGNYLRWYQQKPGKAPKLLISGATNLAAGVPSRFSGSGSGSDYTLTISSLQPEDFATYYCLQSKESPWTFGQGTKVEIKR", "values": [
      {"measurement": "EC50 (read off the curve)", "setting": "[2]", "value": "~0.02", "unit": "µg/mL"}
    ]},
    {"binder": "h#11B7-T22 (antibody, human IgG1, kappa, Humanized IgG1/kappa) heavy: not shown light: DIQMTQSPSSLSASVGDRVTITCRASQDIGNYLRWFQQKPGKAPKLLISGATNLAAGVPSRFSGSGSGSDYTLTISSLQPEDFATYYCLQSKESPWTFGQGTKVEIKRTVAAPSVFIFPPSDEQLKSGTASVVCLLNNFYPREAKVQWKVDNALQSGNSQESVTEQDSKDSTYSLSSTLTLSKADYEKHKVYACEVTHQGLSSPVTKSFNRGEC", "values": [
      {"measurement": "EC50 (read off the curve)", "setting": "[2]", "value": "~0.02", "unit": "µg/mL"}
    ]},
    {"binder": "h#11B7-T26 (antibody, human IgG1, kappa, V domains shown, Humanized IgG1/kappa) VH: QVQLQESGPGLVKPSETLSLTCTVSGYSITSNYWGWIRQPPGKGLEWIGYITYSGSTSYNPSLKSRVTISRDTSKNQFSLKLSSVTAADTAVYYCAITTFYYWGQGTLVTVSS VL: DIQMTQSPSSLSASVGDRVTITCRASQDIGNYLRWYQQKPGKAPKLMISGATNLAAGVPSRFSGSGSGSDFTLTISSLQPEDFATYYCLQSKESPWTFGQGTKVEIKR", "values": [
      {"measurement": "EC50 (read off the curve)", "setting": "[2]", "value": "~0.03", "unit": "µg/mL"}
    ]},
    {"binder": "h#11B7-T16 (antibody, human IgG1, kappa, V domains shown, Humanized IgG1/kappa) VH: QVQLQESGPGLVKPSETLSLTCTVSGYSITSNYWGWIRQPPGKGLEWMGYITYSGSTSYNPSLKSRITISRDTSKNQFSLKLSSVTAADTAVYYCAITTFYYWGQGTLVTVSS VL: DIQMTQSPSSLSASVGDRVTITCRASQDIGNYLRWFQQKPGKAPKLMISGATNLAAGVPSRFSGSGSGSDFTLTISSLQPEDFATYYCLQSKESPWTFGQGTKVEIKR", "values": [
      {"measurement": "EC50 (read off the curve)", "setting": "[3]", "value": "~0.02", "unit": "µg/mL"}
    ]},
    {"binder": "h#11B7-T27 (antibody, human IgG1, kappa, Humanized IgG1/kappa) heavy: not shown light: DIQMTQSPSSLSASVGDRVTITCRASQDIGNYLRWYQQKPGKAPKLLISGATNLAAGVPSRFSGSGSGSDFTLTISSLQPEDFATYYCLQSKESPWTFGQGTKVEIKRTVAAPSVFIFPPSDEQLKSGTASVVCLLNNFYPREAKVQWKVDNALQSGNSQESVTEQDSKDSTYSLSSTLTLSKADYEKHKVYACEVTHQGLSSPVTKSFNRGEC", "values": [
      {"measurement": "EC50 (read off the curve)", "setting": "[2]", "value": "~0.02", "unit": "µg/mL"}
    ]},
    {"binder": "h#11B7-T17 (antibody, human IgG1, kappa, V domains shown, Humanized IgG1/kappa) VH: QVQLQESGPGLVKPSETLSLTCTVSGYSITSNYWGWIRQPPGKGLEWMGYITYSGSTSYNPSLKSRITISRDTSKNQFSLKLSSVTAADTAVYYCAITTFYYWGQGTLVTVSS VL: DIQMTQSPSSLSASVGDRVTITCRASQDIGNYLRWYQQKPGKAPKLLISGATNLAAGVPSRFSGSGSGSDYTLTISSLQPEDFATYYCLQSKESPWTFGQGTKVEIKR", "values": [
      {"measurement": "EC50 (read off the curve)", "setting": "[3]", "value": "~0.02", "unit": "µg/mL"}
    ]},
    {"binder": "h#11B7-T21 (antibody, human IgG1, kappa, V domains shown, Humanized IgG1/kappa) VH: QVQLQESGPGLVKPSETLSLTCTVSGYSITSNYWGWIRQPPGKGLEWIGYITYSGSTSYNPSLKSRVTISRDTSKNQFSLKLSSVTAADTAVYYCAITTFYYWGQGTLVTVSS VL: DIQMTQSPSSLSASVGDRVTITCRASQDIGNYLRWYQQKPGKAPKLMISGATNLAAGVPSRFSGSGSGSDYTLTISSLQPEDFATYYCLQSKESPWTFGQGTKVEIKR", "values": [
      {"measurement": "EC50 (read off the curve)", "setting": "[2]", "value": "~0.02", "unit": "µg/mL"}
    ]},
    {"binder": "h#11B7-T23 (antibody, human IgG1, kappa, V domains shown, Humanized IgG1/kappa) VH: QVQLQESGPGLVKPSETLSLTCTVSGYSITSNYWGWIRQPPGKGLEWIGYITYSGSTSYNPSLKSRVTISRDTSKNQFSLKLSSVTAADTAVYYCAITTFYYWGQGTLVTVSS VL: DIQMTQSPSSLSASVGDRVTITCRASQDIGNYLRWFQQKPGKAPKLMISGATNLAAGVPSRFSGSGSGSDFTLTISSLQPEDFATYYCLQSKESPWTFGQGTKVEIKR", "values": [
      {"measurement": "EC50 (read off the curve)", "setting": "[2]", "value": "~0.01", "unit": "µg/mL"}
    ]},
    {"binder": "h#11B7-T19 (antibody, human IgG1, kappa, V domains shown, Humanized IgG1/kappa) VH: QVQLQESGPGLVKPSETLSLTCTVSGYSITSNYWGWIRQPPGKGLEWMGYITYSGSTSYNPSLKSRITISRDTSKNQFSLKLSSVTAADTAVYYCAITTFYYWGQGTLVTVSS VL: DIQMTQSPSSLSASVGDRVTITCRASQDIGNYLRWYQQKPGKAPKLMISGATNLAAGVPSRFSGSGSGSDFTLTISSLQPEDFATYYCLQSKESPWTFGQGTKVEIKR", "values": [
      {"measurement": "EC50 (read off the curve)", "setting": "[3]", "value": "~0.02", "unit": "µg/mL"}
    ]},
    {"binder": "h#11B7-T18 (antibody, human IgG1, kappa, Humanized IgG1/kappa) heavy: not shown light: DIQMTQSPSSLSASVGDRVTITCRASQDIGNYLRWFQQKPGKAPKLLISGATNLAAGVPSRFSGSGSGSDFTLTISSLQPEDFATYYCLQSKESPWTFGQGTKVEIKRTVAAPSVFIFPPSDEQLKSGTASVVCLLNNFYPREAKVQWKVDNALQSGNSQESVTEQDSKDSTYSLSSTLTLSKADYEKHKVYACEVTHQGLSSPVTKSFNRGEC", "values": [
      {"measurement": "EC50 (read off the curve)", "setting": "[3]", "value": "~0.02", "unit": "µg/mL"}
    ]},
    {"binder": "h#11B7-T20 (antibody, human IgG1, kappa, V domains shown, Humanized IgG1/kappa) VH: QVQLQESGPGLVKPSETLSLTCTVSGYSITSNYWGWIRQPPGKGLEWMGYITYSGSTSYNPSLKSRITISRDTSKNQFSLKLSSVTAADTAVYYCAITTFYYWGQGTLVTVSS VL: DIQMTQSPSSLSASVGDRVTITCRASQDIGNYLRWYQQKPGKAPKLLISGATNLAAGVPSRFSGSGSGSDFTLTISSLQPEDFATYYCLQSKESPWTFGQGTKVEIKR", "values": [
      {"measurement": "EC50 (read off the curve)", "setting": "[3]", "value": "~0.02", "unit": "µg/mL"}
    ]},
    {"binder": "h#11D5-T5 (antibody, human IgG1, kappa, Humanized IgG1/kappa) heavy: not shown light: DIQMTQSPSSLSASVGDRVTITCRASQDIGNYLSWFQQKPGKAPRRMIYGAIKLAVGVPSRFSGSGSGTDYTLTISSLQPEDFATYYCLQYIQFPLTFGGGTKVEIKRTVAAPSVFIFPPSDEQLKSGTASVVCLLNNFYPREAKVQWKVDNALQSGNSQESVTEQDSKDSTYSLSSTLTLSKADYEKHKVYACEVTHQGLSSPVTKSFNRGEC", "values": [
      {"measurement": "EC50 (read off the curve)", "setting": "[1]", "value": "~0.01", "unit": "µg/mL"}
    ]},
    {"binder": "h#11D5-T4 (antibody, human IgG1, kappa, V domains shown, Humanized IgG1/kappa) VH: QVQLQQWGAGLLKPSETLSLTCTVSGYSITSNYWGWIRQPPGKGLEWIGHITNSGNTTYNPSLKSRVTISRDTSKNQFSLKLSSVTAADTAVYYCAKGAFDYWGQGTLVTVSS VL: DIQMTQSPSSLSASVGDRVTITCRASQDIGNYLSWYQQKPGKAPKRLIYGAIKLAVGVPSRFSGSGSGTEFTLTISSLQPEDFATYYCLQYIQFPLTFGGGTKVEIKR", "values": [
      {"measurement": "EC50 (read off the curve)", "setting": "[1]", "value": "~0.01", "unit": "µg/mL"}
    ]},
    {"binder": "h#11D5-T2 (antibody, human IgG1, kappa, V domains shown, Humanized IgG1/kappa) VH: EVQLQESGPGLVKPSQTLSLTCTVSGYSITSNYWGWIRQPPGMGLEWIGHITNSGNTTYNPSLKSRISISVDTSENQFSLKLSSVTPADTAVYYCAKGAFDYWGQGTLVTVSS VL: DIQMTQSPSSLSASVGDRVTITCRASQDIGNYLSWFQQKPGKAPRLMIYGAIKLAVGVPSRFSGSGSGTDYTLTISSLQPEDFATYYCLQYIQFPLTFGQGTKLEIKR", "values": [
      {"measurement": "EC50 (read off the curve)", "setting": "[1]", "value": "~0.01", "unit": "µg/mL"}
    ]}
  ]
}
